Experimental findings from patent publication US20020082410, “Insulin promoter factor, and uses related thereto” (Curis, Inc., published 2002) are described below.

The series has as its target Ipf1 (IPF1, Pdx1) (Mus musculus, UniProt P52946 SEQ:1-284). In words: EMSA; same mobility as IPF1 from betaTC1 nuclear extract; competition with wild-type and mutant P1 sites showed same specificity as endogenous IPF1. The conditions noted are these: tags: none; rabbit reticulocyte lysate from full-length cDNA in pGEM3. How it is done: RNA prepared from the IPF1 cDNA template was translated in vitro and the DNA binding specificity of the in vitro translation product was determined using an electrophoretic mobility shift assay (EMSA) and the insulin promoter PI site as a probe (Ohisson et al., (1991) Mol Endocrin 5:897-904; see also Materials and Methods below). The in vitro translation product bound to the P1 element and migrated to the same relative position in the gel as IPF1 from the βTC1 nuclear extract.

Ipf1 (IPF1, Pdx1), sequence (P52946 other isoform, or with tags, fused parts or gaps): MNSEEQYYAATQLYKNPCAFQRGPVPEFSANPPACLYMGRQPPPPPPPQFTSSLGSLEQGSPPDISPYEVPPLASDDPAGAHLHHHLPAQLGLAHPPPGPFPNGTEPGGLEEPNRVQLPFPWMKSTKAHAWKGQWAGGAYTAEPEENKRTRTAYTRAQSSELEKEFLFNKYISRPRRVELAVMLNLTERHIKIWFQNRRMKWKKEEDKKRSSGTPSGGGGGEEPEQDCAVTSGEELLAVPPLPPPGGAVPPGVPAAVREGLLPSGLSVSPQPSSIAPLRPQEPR

B1: P1 wild-type insulin promoter element (dsDNA)
DNA 1: GCCCTTAATGGGCCAAACGGCA
DNA 2: TGCCGTTTGGCCCATTAAGGGC
As to B1, the binding result is “binds”.
